Consider 41 sequences from the nanobody polyreactivity screen of Harvey et al. (2022).

This data set is described as follows: yeast display, Sf9 membrane polyspecificity reagent, FACS + sequencing; frameworks hold sequencing errors. The essentials:
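Galactose-induced (36–48 hours) yeast carrying a synthetic nanobody display library were exposed to 10% biotinylated, detergent-solubilized Sf9 membrane reagent at 4 °C for 1 hour. FACS followed streptavidin microbead enrichment, using low and high (top ~1%) gates for expression (anti-HA) and reagent binding (streptavidin). Colony PCR, MiSeq 2 × 250 sequencing and CDR-length filtering followed. Labels for polyreactivity reflect the gate of origin.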
For “QVQLVESGGGLVQAGGSLRLSCAASGSTFDYYAMGWYRQAPGKERELVAAITWSGGTTYYADSVKGRFTISRDNAKNTVYLQMNSLKPEDTAVYYCAAESTLPIIDRDDYWGQGTQVTVSS”, the “polyreactivity (PSR sort gate)” value was “low polyreactivity”. With “QVQLVESGGGLVQAGGSLRLSCAASGSTFDYYAMGWYRQTPGNDRELVAALSWSGGSTYYADSVKGRFTISRDNAKNTVYLQMNSLKPEDTAVYYCATGTYCPRYNYFEGYYWGQGTQVTVSS” the entry was “high polyreactivity”; with “QVQLVESGGGLVQAGGSLRLSCAASGSTFDYYDMGWYRQAPGKERELVATITSGGSTNYADSVKGRFTISRDNAKNTVYLQMNSLKPEDTAVYDCAADIGGDGEGYDYWGQGTQVTVSS”, “low polyreactivity”; with “QVQLVESGGGLVQAGGSLRLSCAASGSTFEANAMGWYRQAPGKERELVAVITRTGGSTYYADSVKGRFTISRDNAKNTVYLQMNSLKPVDTAVYYCAADGVVPGRFFWPAHEYDYWGQGTQVTVSS”, “low polyreactivity”. In the case of “QVQLVESGGGLVQAGGSLRLSCAASGSTFEAYAMGWDRQAPGKERELVAAISYSGSSTYYADSVKGRFTISRDNAMNSVYLQMHRLKPEDTALTYCAARASKGRRMGYWGQGTQVTVSS” it was “low polyreactivity”; in that of “QVQLVESGGGLVQAGGSLRLSCAASGSTFEAYAMGWYRQAPGKERELVATITGSGGRTYADSVKGRFTITRDNAKNTVYLQMNSLKPEDTAVYYCAADCLKVAEYDYWGQGTQVTVSS”, “low polyreactivity”; in that of “QVQLVESGGGLVQAGGSLRLSCAASGSTFEGNDMGWYRQAPGKERELVAAITTGAGTNYADSVKGRFTISRDNAKNTVYLQMNSLKPEDTAVYYCATRVYWYYDPYYSKYTYDYWGQGTQVTVSS”, “low polyreactivity”. In the case of “QVQLVESGGGLVQAGGSLRLSCAASGSTFEGYAMGWYRQAPGKERELVAVISSGSITKYADSVKGRFTISRDNAKNTVYLQMNSLKQEDTAVYYCAADWTYVRFDYWGQGTQVTVSS” it was “low polyreactivity”. In the case of “QVQLVESGGGLVQAGGSLRLSCAASGSTFEIYAMGWYRQAPGKERELVAAIDFSGGSTYYADSVKGRFTISRDNAKKTLYLQMNSLKPEDTAVYYCAVDSASDTIYDYWGQGTQVTVSS”, the “polyreactivity (PSR sort gate)” value is reported as “low polyreactivity”. In the case of “QVQLVESGGGLVQAGGSLRLSCAASGSTFEIYAMGWYRQAPGKERELVATITWSGGSTYYADSVKGRFTISRDNAKNTVYLQMNSLKPEDTAVYYCAAESIYYPVAQYYYSFEYWGQGTQVTVSS” it was “low polyreactivity”; in that of “QVQLVESGGGLVQAGGSLRLSCAASGSTFEIYVMGWYRQAPGKERELVAAISRVGNTSYADSVKGRFTISRDNAKNTVYLQMNSLKPEDTAVYYCAADAPSWYDRQYDYWGQGTQVTVSS”, “low polyreactivity”; in that of “QVQLVESGGGLVQAGGSLRLSCAASGSTFELYAMGWYRQAPGKERELVASITGDSTNYADSVKGRFTISRDNAKNTVYLQMNSLKPEDTAVYYCAKPYYDGRTHFDSWGQGTQVTVSS”, “low polyreactivity”.

“QVQLVESGGGLVQAGGSLRLSCAASGSTFEPYAMGWYRQAPGKERELVAAISWSGGSTYYADSVKGRFTISRDNAKNTVYLQMNSLQPEDTAVYYCAAESGVPYYLPVVIYYYWGQGTQVTVSS”: the “polyreactivity (PSR sort gate)” value is recorded as “high polyreactivity”. With “QVQLVESGGGLVQAGGSLRLSCAASGSTFEPYAMGWYRQAPGKERELVATITLRGGTTNYADSVKGRFTISRDNAKNTVYLQMNSLKPEDTAVYYCNARKLTGYIRYRTGKMNYWGQGTQVTVSS” the entry was “high polyreactivity”. Consider “QVQLVESGGGLVQAGGSLRLSCAASGSTFERYAMGWYRQAPGKERELVAAITWGGGSTNYADSVKGRFTISRDNAKNTVYLQMNSLKPEDTAVYYCAREWRTRIYYYWGQGTQVTVSS”, for which the “polyreactivity (PSR sort gate)” value is reported as “low polyreactivity”. With “QVQLVESGGGLVQAGGSLRLSCAASGSTFEVYAMGWYRQAPGKEREMVAAINSRGTSTYYADSVKGRFTISRDNEKNTVYIQMNSLKPEDTAVDFCAARHVYYSGYDYWGQGTQVTGSS” the entry was “low polyreactivity”. With “QVQLVESGGGLVQAGGSLRLSCAASGSTFEYNAMGWYRQAPGKEREFVAASSRTGSRTYYADSVKGRFTISRDNAKHTVYLQMNSLKPEDTAVYYCAVSVPYGMDYWGQGTQLTVSS” the entry was “high polyreactivity”; with “QVQLVESGGGLVQAGGSLRLSCAASGSTFEYNAMGWYRQAPGKERELVAAISRTANANYADSVKGRFTISRDNAKNTFYLQMNSLKPEETAVYYCAADFLDSKVHVRFGYWGQGTQVTVSS”, “low polyreactivity”. With “QVQLVESGGGLVQAGGSLRLSCAASGSTFEYYAMGWYRQAPGKEREFVAAITSTGGSTHYADSVKGRFTISRDNAKNTVYLQMNSLKPEDTAVYVCGKRSYGQTRAYSAGNYWGQGNQVTVSS” the entry was “low polyreactivity”; with “QVQLVESGGGLVQAGGSLRLSCAASGSTFEYYAMGWYRQAPGKERELVAAISTGGSTYYADSVKGRFTISRDNAKNTVYLQMNSLKPEDTAVYYCAALYRTSYVRMGYWGQGTQVTVSS”, “high polyreactivity”; with “QVQLVESGGGLVQAGGSLRLSCAASGSTFFFNAMGWYRQAPGKERELVAAITGSGGSTYYADSVKGRFTISRDNAKNTVYLQMNSLKPEDTAVYYCNASSPYDYDWGQGTQVTVSS”, “low polyreactivity”. For “QVQLVESGGGLVQAGGSLRLSCAASGSTFFFNAMGWYRQAPGKERELVAAITVRSGSTYYADSVKGRFTISRDNAKSTVYLQMNSLKPEDTAVYFCAADYSPGRSVVDYWGQGTQVTVSS”, the “polyreactivity (PSR sort gate)” value was “low polyreactivity”.

With “QVQLVESGGGLVQAGGSLRLSCAASGSTFFFYAMGWYRQAPGKERELVAAISSGGTTDYADSVKGRFTISRDNAKNTVYLQMNSLKPEDTAVYYCAATYVYWTWGYDYWGQGTQVTVSS”, the “polyreactivity (PSR sort gate)” value is “low polyreactivity”. With “QVQLVESGGGLVQAGGSLRLSCAASGSTFFGNAMGWYRQAPGKERELVAAITSGGSTNYADSVKGRFTFSRDNAKNTVSLQMNSLKPEDTAVYDCAKPSRWGWTGFYAYDYWGQGTQVTVSS” the entry was “low polyreactivity”; with “QVQLVESGGGLVQAGGSLRLSCAASGSTFFGYAMGWYREAPGKERELVAAISSRGGSTYYADSVKGRFTISRDNAKKTVYLQMNSLKPEDTAVYYCNKVYHYPYYYWGQGTQVTVSS”, “high polyreactivity”. With “QVQLVESGGGLVQAGGSLRLSCAASGSTFFGYAMGWYRQAPGKERELVAAITSGGSTNYADSVKGRFTISRDNAKNTVYLQMNRLIPDDTAVYFCARRWYRGYGYWGQGTQVTVSS” the entry was “high polyreactivity”; with “QVQLVESGGGLVQAGGSLRLSCAASGSTFFIYAMGRYRQAPGKERELVAAISGSGGTTYYADSVKGRFTISRDNAKNTVYLQMNSLKPEDTAVYYCAARTFSAFWRGGYDYWGQGTQVTVSS”, “low polyreactivity”; with “QVQLVESGGGLVQAGGSLRLSCAASGSTFFIYAMGWYRQAPGKERELVAVIRNIDVRTYYADSVKGRFTISRDNAKNTVYLQMNSLKPEDTAVYYCAADELLDESVDMYYWGQGTQVTVSS”, “low polyreactivity”. With “QVQLVESGGGLVQAGGSLRLSCAASGSTFFLYMGWYRQAHGKERELVAAITVSGGSTYYADSVKGRFTISRDNAKNTVYLQMNSLKPEDTAVYYCNADWVMRYDYWGQGTQVTVSS” the entry was “low polyreactivity”.

For “QVQLVESGGGLVQAGGSLRLSCAASGSTFFNYAMGWYRQAPGKEREFVARIRWRGGSTYYADSVKGRFTISRDNAKNTVYLQMNSLKPEDTAVYYCNADYWGHGGLYDYWGQGTQVTVSS”, the “polyreactivity (PSR sort gate)” value is given as “high polyreactivity”. In the case of “QVQLVESGGGLVQAGGSLRLSCAASGSTFFNYAMGWYRQAPGKERELVAAISSSGGRTYYADSVKGRFTISRDNAKNTVYLQMNSLKPEDTAVYYCAASGRKNGMNYWGQGTQVTVSS” it was “high polyreactivity”; in that of “QVQLVESGGGLVQAGGSLRLSCAASGSTFFPYAMGWYRQAPGKERELVAAIRWSGGRTYYADSVKGRFTISRDNAKNTVYLQMNSLKPEDTAVYYCAADKYLYYDYWGQGTQVTVSS”, “high polyreactivity”. In the case of “QVQLVESGGGLVQAGGSLRLSCAASGSTFFPYAMGWYRQAPGKERELVAAIRWSGGRTYYADSVKGRFTISRDNAKNTVYLQMNSLKPEDTAVYYCAAEKYLDYDYWGQGTQVTVSS” it was “high polyreactivity”; in that of “QVQLVESGGGLVQAGGSLRLSCAASGSTFFPYAMGWYRQAPGKERELVAAITSGGRTKYADSVKGRFTISRDNAKNTVYLQMNSLKPEDTAVYYCAARGLIKEYGGPYRRFGYWGQGTQVTVSS”, “high polyreactivity”; in that of “QVQLVESGGGLVQAGGSLRLSCAASGSTFFPYAMGWYRQAPGKERELVAGISSDGGTSYADSVKGRFTISRDNAKNTVYLQMNSLKPEDTAVYYCAARGLLWYYSWRYYYWGQGTQVTVSS”, “low polyreactivity”. In the case of “QVQLVESGGGLVQAGGSLRLSCAASGSTFFRNAMGWYRQAPGKERELVAAITWSGGSTYYADSVKGRFTISRDNAKNTVYLQMNSLKPEDTAVYYCAAGLSYWTPHYYPFDYWGQGTQVTVSS” it was “low polyreactivity”; in that of “QVQLVESGGGLVQAGGSLRLSCAASGSTFFRYAMGWYRPAPGKEREFVAAISKRGGSTHYADSVKGRFTISRDNAKNTVYLQMNSLKPEDTAVYYCAASSFTSSYNFWGQGTQVTVSS”, “high polyreactivity”; in that of “QVQLVESGGGLVQAGGSLRLSCAASGSTFFRYAMGWYRQAPGKEREFVAAITWSGTGTYYADSVKGRFTISRDNAENTVYLQMNSLKPEDTAVYYCNAEPFDLWAFYYGYVYGYYHWGQGTQVTVSS”, “high polyreactivity”. For “QVQLVESGGGLVQAGGSLRLSCAASGSTFFRYAMGWYRQAPGKEREFVAAITWSGTGTYYADSVKGRFTISRDNAKNTVYLQMNSLKPEDTAVYYCNADPFDLWAFYYGYVYGYYHWGQGTQVTVSS”, the “polyreactivity (PSR sort gate)” value is recorded as “high polyreactivity”. With “QVQLVESGGGLVQAGGSLRLSCAASGSTFFRYAMGWYRQAPGKEREFVAAITWSGTGTYYADSVKGRFTISRDNAKNTVYLQMNSLKPEDTAVYYCNAEPFDLWAFYYGYVYGYYHWGQGTQVTVSS” the entry was “high polyreactivity”; with “QVQLVESGGGLVQAGGSLRLSCAASGSTFFSNAMGWSRQAPGKERELVAAISWSGGSTYYADSVKGRFTISRDNAKNTVYLQMNSLKPEDTAVYYCAASFWTDYYRYDYWGQGSQVTVSS”, “low polyreactivity”.
